20 sequences from the DeepSol protein solubility set can be followed below.

A short description of this series: soluble on expression in E. coli; label from the status in PepcDB or PDB records.
As for “PLHHLMIGTWTPPGAIFTVQFDDEKLTCKLIKRTEIPQDEPISWMTFDHERKNIYGAAMKKWSSFAVKSPTEIVHEASHPIGGHPRANDADTNTRAIFLLAAKQPPYAVYANPFYKFAGYGNVFSVSETGKLEKNVQNYEYQENTGIHGMVFDPTETYLYSADLTANKLWTHRKLASGEVELVGSVDAPDPGDHPRWVAMHPTGNYLYALMEAGNRICEYVIDPATHMPVYTHHSFPLIPPGIPDRDPETGKGLYRADVCALTFSGKYMFASSRANKFELQGYIAGFKLRDCGSIEKQLFLSPTPTSGGHSNAVSPCPWSDEWMAITDDQEGWLEIYRWKDEFLHRVARVRIPEPGFGMNAIWYD”, the “soluble on expression in E. coli” value is recorded as “soluble”.
In the case of “MSLYVKMMEMGRMIDNCLYCGSATLLSIIHLANGKNAVTCGKCGLTRTIPVPSAEYSEVAEYFENYLLKEKLFRAFSRKLLDFVLSVVQNGRLLEVGCSVGFFLEEAKRAGFSVNGVELNEKAATLSKGKDFDVRNCMLREAGFPSHEFDVVVMSHVLEHIQDLREFLADIKVLLRPGGKVIVSQPTPDGIVPKMQKKKWYGWVPNEHVWHFTPKTLSLVFAENGFDVVKVERNSMYYSLWPSSLRGILVALVARTAAVLGLGDQFYLAATVSEKDSEGHHHHHH”, the “soluble on expression in E. coli” value is recorded as “not soluble”.
For “MGSDKIHHHHHHMSATSLYRLFAPQIEFLSPAEKQVFFYIDNHISTIEKMSLTSLAESTNVSTTTVIRMCHKLKLSGFSELKFLLHSDKTETKPLSKDYSSTFLEKIRLGIEQLPKKEIEQVATRIAYAPKIYIACLGMTKTLGEYFSKSLVTSKKNVVFTYDSFIIDILPQIVERDDLIIIISESGGTENTLSLAEHLKYNLSNVIAIVNNPNAQISQYVETIIYASSEEFDEDSFKHHHAPLLIVIDLILNIFEQQKKLI”, the “soluble on expression in E. coli” value is given as “not soluble”.
The value for “MAALSDKLADAYQNARPRYPIDWFTKLAARTGQHKSAWDVGTGNGQAAIGLAEYFEKVTATDINEAQLKRAVKHERISYHHTPTTMSEDQMVALVGGDNSVDLIVAAQAVHYFDLAPFYNVAKRVLRKEGGLIAVFVYNDIIISPEVDSIMKRLVDSTFPFRTPVMNLAFDGYKTLPFPFESIGMGSEGKPIMLDIPHKLSLKGFIGFLRSWQPAMKAKERGVELVTEDLISKFEDAWGDDDDVKDIFYKAHMIVGKLSASDIERHRKRFDTNCVVTTLKDHNNSAVIASVTAAAFAGVAAYCAYSARKNS” was “soluble”.
With “MSHIRVAFAPLDTNPSTCGLETFATQIETLSQMMTAEEMKAELYDCVRRILREQKFDQIRENEAMLRLYKVMGRSSTNLKGRGIYEQLFKKDHFTGSLKFYLQWAEECGKDQMLEEFKDVLKLARDRLSERIEMTAIESGFRDLVDEYFNGESGDMFTRPDETMDLFRFNAGSKKKRRSSVCFLQHNVPINNSGKAAFGPKTKTDLRQACIDRPNYHGISIEEFRFAKWKDTFGEDVDDDYRKRKDSGVVFVKHQVIDTDRQAREEVENRFNANLNPRRRHLSPVSEKTVDDEEEKRSRIYSPLVATKDAHRPALRSKIENPPATVTLSSDTKSASEKDVSDSDDADDDERLKIMTAGRKDGNPPDRSTSISSNYSTASARTSKSGAGLDLMAENKCLEAHAMFSDTVHLASEKTMVLGDDSVFVPERSLATTQIVTDFSVLCDPDPTMTITQERPKKVSNGLNVVYDEAAEPEESQKVEESEVQPEIVLVSPVTQTSPATMFNDIYDDEIEFGFFKPSRGNFVTSTPAQGVHLVNIDEYFGNKEEESTHEQEAPVFVAPTSSTFSKLTRRKSLAANQAVQPSVTESSKPERSDPKDSSIDCLTANLGRRLSIGADEIPNLTENNESEITGCKIRRRSEIIKQGDINPWDETLRKKLMCLVRPPQNMHEFQERAPKIQALRDCEVSGEKLHIQTLIGQGGYAKVYRAVTDDQRTVAVKYEVPSCSWEVYICDQMRNRLKDRGLELMAKCCIMEVMDAYVYSTASLLVNQYHEYGTLLEYANNMKDPNWHITCFLITQMARVVKEVHASKIIHGDIKPDNFMITRKIDDKWGKDALMSNDSFVIKIIDWGRAIDMMPLKNQRFKGRAGTEAFDCPEMVDGRSWTYQADYFGFAATMAVVVAGKYAQLTGASVGDYSLNVDIKRRNILRDACYDVINRFLNIPSCDSLPDWNILIKSFSEIWNEKFEASGWRQAVSKFNEACDLAANQK”, the “soluble on expression in E. coli” value is reported as “not soluble”.
As to “MKHEWRKFEKELYGVKAKPIFLEVEEQRFITIKGKGNPNDQDFSNRVSALYALAYGIKMAYKQAMKTEQDDRAVTDFAVYPLEGLWQQAKDAKEDTLEKDKLSYTIMIRQPEFITKELVDQALDRVKIKKPNSFYESISFESIKDGKCIQVLHIGSYDDEPQSFAKMDAFAKEHGLKRSSDIHREIYLSNAQRTEKSKLKTILRYQVEEK”, the “soluble on expression in E. coli” value was “not soluble”.
As for “MGMKYLIKLKYIKPAQLAVNREQKLAEFYPIFEDGTLGRVEAKARVFLPEYSDFAKGLGFEVKKRRMITEDDYAYLRAMVYGVVMGVLRNPGDWRRLEERVLEMEPIELRYWASKFRNAYWKYKNMRKLMFLARRFMEVEMILEHHHHHH”, the “soluble on expression in E. coli” value is “soluble”.
Turning to “MGSDKIHHHHHHMAAEALADEHLVMLAYRDPAIGDHIDVQKVRLPFRWEFDLPTIFSLVRLVWRKKIDILIPTKRKDYVLAGLVCRLTGAANILRLGIDRPLKNTPVQRLIYGWLADGIIVNADKIRRTLALSPWIDPDKVRVIYNGIDREKLEPDSVLPCKKPFSFTIGAAGALIPRKGFDYLIRSFARFSAGSNEITDAGLVIAGTGPERESLEKLAADLGISGRVRFTGHLTNPYPVMRACDLFVSASTSEGLANVLLESMALHCVPVSTLSGGADELIEDGRNGFLVRYGDEKRLAEIFSELYKNPGKIASVAANAHQTIMQRFSIELMRKDLFEFCSEINDRKKGT”, the “soluble on expression in E. coli” value is “not soluble”.
With “MGGAVEVSATINNVGNYNAEEVVQLYIRDIVGNVTRPIKELKGFQRITLGKGESMVVTFKLHTDELAFYNQQMEYKPEAGLFHVWIGGDSSTTLKTEFEVTDLEHHHHHH” the entry was “not soluble”; with “MNTKKFAKVNEQIPGPKAASLLERRQNIVPKGVSNGIPTFVQSANGALVTDVDGNQYIDFAGAIGTINVGHCHPAVKEALHKQVDQYIHTGFNVMMYEPYIELAEKLAALAPGSFDKQVLFLNSGAEAVENAVKIARKYTKRPGIIAFSKGFHGRTLMTMTMTSKVKPYKFGFGPFAPEVYKAPFPYEYRCPEGLTEEQYDDFMIEEFKNFFISEVAPETIAAVVMEPVQGEGGFIVPSKKFAQEVRNICSEHGILFVADEIQTGFSRTGKYFAIDHYDVVPDLITVSKSLGAGVPISGVIGRKEIMNESAPGELGGTYAGSPLGCAAALAVLDVIEKENLNDRAIELGKVVMNRFEEMKNKYNCIGDVRGLGAMCAFELVQDRKTKTPDKTLTANLCTEANKRGLLLLSAGTYGNVIRVLMPLVITDEQLEEGLTIIEESLQICYEKANTARV”, “not soluble”.
Take “MSSKPLYTILTVFNPIFIYFTKRDNLHTLRFKKDRAIKISEELFPDELCERCGRCCILHAYKTEDGIKTIYCEHLDPETKLCKVYKDRFKHRCLTVMEGILAGVFPKDCPYVKNLKNYEEPWFYRHLRDLEHHHHHH”: the “soluble on expression in E. coli” value is on record as “not soluble”.
With “MGSDKIHHHHHHMYKNSMVIGKFYPPHAGHAHLINTAAAQSENVSVLVLGNRFESITVADRTTWLAAEFEDIAGVHVIGMPNDCPEDYDSEEIWKAQSELMRLALKTHGVTEVEAVFSSEEYGAQLAQAFGAEHVLVDQSRTTFPISGTLCRDDLGSAWPFIIGPARQGLATRIILVGAESSGTSTLAKALTEHYRPRFPGITDVPEYGRDYTYEKFDALRAKMPEAVLEDMVWNEQDFGRIATRQNEMENAAADACPLVIADTDSLATTLWERFYIGERSYGSYLAASNLPPRDLYLITDHEGVEFEDDGWREGEHRRAEMTEWFKEALTAEGHSWILVSGDHERRKQTAVEIIELILMQRSKFTSPPWATRTVLEGAAV” the entry was “not soluble”.
With “IGEFSYSLNGNLSYAHNRILSRTQADNTLPWQSVLGSSVGELWGLKALGLYQSEEEIANSPQVSWNTPRVGDIKYADINGDGKIDSNDRIKISRGIRPEMMFALMADANYKGFDLSVQFQGAALCDKMLQYSWQDLNGATDMTPMTRPWYANWDNAPLYLVENSWRPDHTNAEYPRLTVSSVSHSNNAQQSDFWKRNGAYLRLKNVTLGYTLPKAWTNKMGLSNIRVYANGTNLLTFTDFKYIDPESTNVATGYYPQQRTFSFGIDVRF” the entry was “not soluble”.
As for “GMNISNLINADVDEKGFVSDKLRDNFFQIVRNRPENRTCFDCESRNPTWLSLSFAVFICLNCSSDHRKMGVHISFVRSSDLDKFTPIQLVRMDIGGNGRARNYFKQVLGVNFSPKTKEYASSICGRQYKQILDSEISE”, the “soluble on expression in E. coli” value is reported as “soluble”.
For the sequence “ESIQRPTPINQVFPDPGLANAVKQNLGKQSVTDLVSQKELSGVQNFNGDNSNIQSLAGMQFFTNLKELHLSHNQISDLSPLKDLTKLEELSVNRNRLKNLNGIPSACLSRLFLDNNELRDTDSLIHLKNLEILSIRNNKLKSIVMLGFLSKLEVLDLHGNEITNTGGLTRLKKVNWIDLTGQKCVNEPVKYQPELYITNTVKDPDGRWISPYYISNGGSYVDGCVLWELPVYTDEVSYKFSEYINVGETEAIFDGTVTQPIKN”, the “soluble on expression in E. coli” value is recorded as “soluble”.
With “MARPIGIYEKATPKQFTWRERLQFAKDLGFDFVEMSVDESDARLARLEWTKEERLDLVKAIYETGIRIPTICFSGHRRYPLGSNDPAIEAKSLKLMKQCIELAQDLGVRTIQLAGYDVYYEKKSPETRARFIKNLRQSCDWAEEAQVMLSIEIMDDPFINSIEKYLAVEKEIDSPYLFVYPDAGNVSAWHNDLWSEFYNGHKSIAALHLKDTYAVTETSKGQFRDVPFGQGCVDWQELFAVLKKTNYNGPFLIEMWSENCDTVEETKAAIKEAQDFLYPLIEKAGLT” the entry was “not soluble”; with “MPLEGEYEPSPTQWVRDQVELYESSGGTKGTTLMDTGLPVIILTTLGAKSGKIRKTPLMRVEHDGKYAAVASLGGAPKHPVWYYNVLGTPAVELQDGAVRKEFTAREVTGEEKAQWWERAVAAYPPYAEYQEKTDREIPVFVLEPAG”, “not soluble”; with “TRAFKWTTNFNISFNKNKVLALSENQTALLTAAQFDQNYNGQSSYIAKVGLPMGLMYGYVYEGTYKYDDFNKSGNSYSLKPGVPHYSTETNTQPGMPKYADLNGDGVVDSNDRTIIGRGLPIHTGGFTNNFEYKGIDLSIFFQWSYGNDIMNANRLFFESSNNRSRELNQFASYANRWTPENPTSDIPAATNSSSNRVISSRIIEDGSYLRLKNVTVGYTFPAKLVKKWKIDKARVYVAAQNLWTCTGYSGYDPEVSVRNSALTPGLDYSSYPRAYSISFGVSLGF”, “not soluble”.
“MDGEKSGNRELYTKRVYEYDQVINQVLKHEENILSLIKKDTFGAAYKRLVLADEMIYLATLYLAKFRLSVALLGGKNENILNEARKTLYKPIIYLEEIVTDLIDAPFSEYEEGVDRISKITEKQRYYLIRKLGLVINLVIDAYGENTKWRWSFIDIEARFAVVAKNIMDLKEISQTGLNPHAEDYDTVIYHLRLVKKLFTKAADKYREKYEIVTNNISDFRTAILFLEGLRRVHMVLNEHREVEEIKRKIEIWKDKMEKDLKQKDKPKK”: the “soluble on expression in E. coli” value is listed as “not soluble”.
The value for “MISNKRRPKIKIWNKEQMALYLKAIKKDRLYAAFVTDSKSGLRKSELLALRWSDIDFSTGLTKIERGWVRSPKGTLYLSDLKSENSERTLVFSTDLLKVLLEHKSRQDEEKKTAGKNYIDNGLVFCREDGSYINPSTFTRRHYDLTAKAKLPRISVHALRHSISTALLESGKVDLKQIQEMLGHKDISTTGNYYTDVLERMKQKTSELIDNLIQTELEHHHHHH” was “not soluble”.
